T1: FcγRIIa R extracellular domain with C-terminal His tag (human, UniProt P12318 34-217)
T1 construct: extracellular domain; also called FcgRIIa R; 2aR; not shown: His tag at the C terminus
T1 sequence (looked up): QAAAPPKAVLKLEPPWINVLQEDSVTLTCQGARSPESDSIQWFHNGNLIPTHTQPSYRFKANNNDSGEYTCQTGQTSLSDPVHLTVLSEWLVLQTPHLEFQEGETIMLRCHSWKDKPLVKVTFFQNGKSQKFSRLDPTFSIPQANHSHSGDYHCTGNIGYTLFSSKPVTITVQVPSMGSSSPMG


Biological target: T1, FcγRIIa R extracellular domain with …
Experiment: SPR (Biacore), relative FcγRIIa R binding, GpH7-A5/GpH7-B3/GpL16-k0 = 100

| He/Con_2aR | Binder |
| --- | --- |
| 110 % of control | GpH7-A5/GpH7-B3 variant S337_20W/GpL16-k0 (antibody, human IgG1, kappa, heterodimerized: alteration in one H chain only; also called He Ab S337_20W) heavy 1: not shown heavy 2: not shown light: DIVMTQSPLSLPVTPGEPASISCQASESLVHSNRNTYLHWYLQKPGQSPQLLIYKVSNRFSGVPDRFSGSGSGTDFTLKISRVEAEDVGVYYCSQNTHVPPTFGQGTKVEIERTVAAPSVFIFPPSDEQLKSGTASVVCLLNNFYPREAKVQWKVDNALQSGNSQESVTEQDSKDSTYSLSSTLTLSKADYEKHKVYACEVTHQGLSSPVTKSFNRGEC |
| 122 % of control | GpH7-A5/GpH7-B3 variant S239_08L/GpL16-k0 (antibody, human IgG1, kappa, heterodimerized: alteration in one H chain only; also called He Ab S239_08L) heavy 1: not shown heavy 2: not shown light: DIVMTQSPLSLPVTPGEPASISCQASESLVHSNRNTYLHWYLQKPGQSPQLLIYKVSNRFSGVPDRFSGSGSGTDFTLKISRVEAEDVGVYYCSQNTHVPPTFGQGTKVEIERTVAAPSVFIFPPSDEQLKSGTASVVCLLNNFYPREAKVQWKVDNALQSGNSQESVTEQDSKDSTYSLSSTLTLSKADYEKHKVYACEVTHQGLSSPVTKSFNRGEC |
| 105 % of control | GpH7-A5/GpH7-B3 variant S337_15Y/GpL16-k0 (antibody, human IgG1, kappa, heterodimerized: alteration in one H chain only; also called He Ab S337_15Y) heavy 1: not shown heavy 2: not shown light: DIVMTQSPLSLPVTPGEPASISCQASESLVHSNRNTYLHWYLQKPGQSPQLLIYKVSNRFSGVPDRFSGSGSGTDFTLKISRVEAEDVGVYYCSQNTHVPPTFGQGTKVEIERTVAAPSVFIFPPSDEQLKSGTASVVCLLNNFYPREAKVQWKVDNALQSGNSQESVTEQDSKDSTYSLSSTLTLSKADYEKHKVYACEVTHQGLSSPVTKSFNRGEC |
| 135 % of control | GpH7-A5/GpH7-B3 variant S239_10E/GpL16-k0 (antibody, human IgG1, kappa, heterodimerized: alteration in one H chain only; also called He Ab S239_10E) heavy 1: not shown heavy 2: not shown light: DIVMTQSPLSLPVTPGEPASISCQASESLVHSNRNTYLHWYLQKPGQSPQLLIYKVSNRFSGVPDRFSGSGSGTDFTLKISRVEAEDVGVYYCSQNTHVPPTFGQGTKVEIERTVAAPSVFIFPPSDEQLKSGTASVVCLLNNFYPREAKVQWKVDNALQSGNSQESVTEQDSKDSTYSLSSTLTLSKADYEKHKVYACEVTHQGLSSPVTKSFNRGEC |
| 173 % of control | GpH7-A5/GpH7-B3 variant S267_09D/GpL16-k0 (antibody, human IgG1, kappa, heterodimerized: alteration in one H chain only; also called He Ab S267_09D) heavy 1: not shown heavy 2: not shown light: DIVMTQSPLSLPVTPGEPASISCQASESLVHSNRNTYLHWYLQKPGQSPQLLIYKVSNRFSGVPDRFSGSGSGTDFTLKISRVEAEDVGVYYCSQNTHVPPTFGQGTKVEIERTVAAPSVFIFPPSDEQLKSGTASVVCLLNNFYPREAKVQWKVDNALQSGNSQESVTEQDSKDSTYSLSSTLTLSKADYEKHKVYACEVTHQGLSSPVTKSFNRGEC |
| 109 % of control | GpH7-A5/GpH7-B3 variant S337_07I/GpL16-k0 (antibody, human IgG1, kappa, heterodimerized: alteration in one H chain only; also called He Ab S337_07I) heavy 1: not shown heavy 2: not shown light: DIVMTQSPLSLPVTPGEPASISCQASESLVHSNRNTYLHWYLQKPGQSPQLLIYKVSNRFSGVPDRFSGSGSGTDFTLKISRVEAEDVGVYYCSQNTHVPPTFGQGTKVEIERTVAAPSVFIFPPSDEQLKSGTASVVCLLNNFYPREAKVQWKVDNALQSGNSQESVTEQDSKDSTYSLSSTLTLSKADYEKHKVYACEVTHQGLSSPVTKSFNRGEC |
| 116 % of control | GpH7-A5/GpH7-B3 variant S267_03V/GpL16-k0 (antibody, human IgG1, kappa, heterodimerized: alteration in one H chain only; also called He Ab S267_03V) heavy 1: not shown heavy 2: not shown light: DIVMTQSPLSLPVTPGEPASISCQASESLVHSNRNTYLHWYLQKPGQSPQLLIYKVSNRFSGVPDRFSGSGSGTDFTLKISRVEAEDVGVYYCSQNTHVPPTFGQGTKVEIERTVAAPSVFIFPPSDEQLKSGTASVVCLLNNFYPREAKVQWKVDNALQSGNSQESVTEQDSKDSTYSLSSTLTLSKADYEKHKVYACEVTHQGLSSPVTKSFNRGEC |
| 102 % of control | GpH7-A5/GpH7-B3 variant T335_02A/GpL16-k0 (antibody, human IgG1, kappa, heterodimerized: alteration in one H chain only; also called He Ab T335_02A) heavy 1: not shown heavy 2: not shown light: DIVMTQSPLSLPVTPGEPASISCQASESLVHSNRNTYLHWYLQKPGQSPQLLIYKVSNRFSGVPDRFSGSGSGTDFTLKISRVEAEDVGVYYCSQNTHVPPTFGQGTKVEIERTVAAPSVFIFPPSDEQLKSGTASVVCLLNNFYPREAKVQWKVDNALQSGNSQESVTEQDSKDSTYSLSSTLTLSKADYEKHKVYACEVTHQGLSSPVTKSFNRGEC |
| 106 % of control | GpH7-A5/GpH7-B3 variant S337_19Q/GpL16-k0 (antibody, human IgG1, kappa, heterodimerized: alteration in one H chain only; also called He Ab S337_19Q) heavy 1: not shown heavy 2: not shown light: DIVMTQSPLSLPVTPGEPASISCQASESLVHSNRNTYLHWYLQKPGQSPQLLIYKVSNRFSGVPDRFSGSGSGTDFTLKISRVEAEDVGVYYCSQNTHVPPTFGQGTKVEIERTVAAPSVFIFPPSDEQLKSGTASVVCLLNNFYPREAKVQWKVDNALQSGNSQESVTEQDSKDSTYSLSSTLTLSKADYEKHKVYACEVTHQGLSSPVTKSFNRGEC |
| 104 % of control | GpH7-A5/GpH7-B3 variant T335_05P/GpL16-k0 (antibody, human IgG1, kappa, heterodimerized: alteration in one H chain only; also called He Ab T335_05P) heavy 1: not shown heavy 2: not shown light: DIVMTQSPLSLPVTPGEPASISCQASESLVHSNRNTYLHWYLQKPGQSPQLLIYKVSNRFSGVPDRFSGSGSGTDFTLKISRVEAEDVGVYYCSQNTHVPPTFGQGTKVEIERTVAAPSVFIFPPSDEQLKSGTASVVCLLNNFYPREAKVQWKVDNALQSGNSQESVTEQDSKDSTYSLSSTLTLSKADYEKHKVYACEVTHQGLSSPVTKSFNRGEC |
| 123 % of control | GpH7-A5/GpH7-B3 variant S324_06M/GpL16-k0 (antibody, human IgG1, kappa, heterodimerized: alteration in one H chain only; also called He Ab S324_06M) heavy 1: not shown heavy 2: not shown light: DIVMTQSPLSLPVTPGEPASISCQASESLVHSNRNTYLHWYLQKPGQSPQLLIYKVSNRFSGVPDRFSGSGSGTDFTLKISRVEAEDVGVYYCSQNTHVPPTFGQGTKVEIERTVAAPSVFIFPPSDEQLKSGTASVVCLLNNFYPREAKVQWKVDNALQSGNSQESVTEQDSKDSTYSLSSTLTLSKADYEKHKVYACEVTHQGLSSPVTKSFNRGEC |

— patent publication US20150344570A1 (published 2015)
